Biological target: KpSSB (single-stranded DNA-binding protein) (Klebsiella pneumoniae, UniProt A6TGW7 1-174)
Test: EMSA; no extract; [Protein]50; 40 mM Tris-HCl pH 7.5, 50 mM NaCl, 37 °C, 60 min; 30 fmol/uL biotinylated ssDNA; 8% native PAGE in TBE
Details: protein: recombinant, tag not described, chain copies: 4

Sequence of KpSSB (single-stranded DNA-binding protein) (A6TGW7 whole entry): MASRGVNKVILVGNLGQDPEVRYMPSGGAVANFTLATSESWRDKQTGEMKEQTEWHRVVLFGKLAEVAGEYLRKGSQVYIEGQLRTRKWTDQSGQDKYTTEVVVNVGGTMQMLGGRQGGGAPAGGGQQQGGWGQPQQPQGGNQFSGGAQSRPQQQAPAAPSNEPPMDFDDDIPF

TTTTTTTTTTTTTTTTTTTTTTTTTTTTTTTTTTT (ssDNA) [dT35]
apparent K (half saturation): 206 ± 14.3 nM
